To fix the notation:
T1: intact high molecular weight kininogen (HMWK) (Homo sapiens, UniProt P01042 19-644)
T1 construct: also called intact HMWK; 1-chain HMWK
T1 sequence: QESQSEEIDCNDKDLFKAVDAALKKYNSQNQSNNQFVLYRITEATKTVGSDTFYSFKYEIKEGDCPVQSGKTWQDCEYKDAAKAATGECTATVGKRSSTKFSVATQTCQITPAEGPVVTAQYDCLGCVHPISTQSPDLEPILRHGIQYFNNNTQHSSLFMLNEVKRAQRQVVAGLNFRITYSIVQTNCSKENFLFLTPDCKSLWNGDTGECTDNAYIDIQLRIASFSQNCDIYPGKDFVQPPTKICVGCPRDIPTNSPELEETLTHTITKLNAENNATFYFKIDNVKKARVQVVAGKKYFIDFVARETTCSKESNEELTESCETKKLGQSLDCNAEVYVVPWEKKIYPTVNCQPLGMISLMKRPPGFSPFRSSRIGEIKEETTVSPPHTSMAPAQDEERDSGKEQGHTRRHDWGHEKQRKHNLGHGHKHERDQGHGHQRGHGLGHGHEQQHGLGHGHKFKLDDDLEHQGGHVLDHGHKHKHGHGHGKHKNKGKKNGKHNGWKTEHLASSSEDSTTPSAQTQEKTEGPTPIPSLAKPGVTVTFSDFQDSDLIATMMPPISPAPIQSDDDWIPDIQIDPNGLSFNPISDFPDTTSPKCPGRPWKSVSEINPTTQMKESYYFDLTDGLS

B1: 559B-M0039-H06 (Fab, V domains shown)
VH: EVQLLESGGGLVQPGGSLRLSCAASGFTFSAYDMHWVRQAPGKGLEWVSSIWPSGGGTYYADSVKGRFTISRDNSKNTLYLQMNSLRAEDTAVYYCARGDYDYGDFTDAFDIWGQGTMVTVSS
VL: QSALTQPASVSGSPGQSITISCTGTSSDVGSYNLVSWYQQHPGKAPKLMIYEGSKRPSGVPDRFSGSKSGNTASLIISGLQAEDEADYYCCSYAGSYSYVFGTGTRVTVL
B2: 559B-X0004-B05 (Fab, V domains shown)
VH: EVQLLESGGGLVQPGGSLRLSCAASGFTFHYRMMWVRQAPGKGLEWVSYISSSGGYTAYADSVKGRFTISRDNSKNTLYLQMNSLRAEDTAVYYCAAKRNRAFDIWGQGTMVTVSS
VL: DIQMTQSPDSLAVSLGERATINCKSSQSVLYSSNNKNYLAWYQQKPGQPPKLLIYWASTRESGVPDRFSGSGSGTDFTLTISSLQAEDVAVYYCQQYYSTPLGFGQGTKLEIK
B3: 559B-M0044-E09 (Fab, V domains shown)
VH: EVQLLESGGGLVQPGGSLRLSCAASGFTFSQYSMGWVRQAPGKGLEWVSSIYSSGGSTQYADSVKGRFTISRDNSKNTLYLQMNSLRAEDTATYYCARTRRGWFGEDYYYYMDVWGKGTTVTVSS
VL: DIQMTQSPSSLSASVGDRITITCRASQGIRNDVGWYQQKPGKAPQRLIYAASSLQSGVPSRFSGSGSGTEFTLTISSLQPEDFATYYCLQHNSYPLTFGGGTKVEIK
B4: 559B-M0036-G12 (Fab, V domains shown)
VH: EVQLLESGGGLVQPGGSLRLSCAASGFTFSRYYMAWVRQAPGKGLEWVSGIVPSGGQTGYADSVKGRFTISRDNSKNTLYLQMNSLRAEDTAVYYCARTRRGWFGEDYYYYMDVWGKGTLVTVSS
VL: DIQMTQSPGTLSLSPGERATVSCRASQSVGSTYLAWYQHKPGQAPRLLIYGASSRATGIPDRFSGSGSGTDFTLTISSLEPEDFAIYYCQHFHTSPPGITFGQGTRLEIK
B5: 559B-M0048-D12 (Fab, V domains shown)
VH: EVQLLESGGGLVQPGGSLRLSCAASGFTFSRYQMTWVRQAPGKGLEWVSSIGSSGGFTNYADSVKGRFTISRDNSKNTLYLQMNSLRAEDTAVYYCARLPANFYYYMDVWGKGTTVTVSS
VL: DIQMTQSPSSLSASVGDRVTITCRASQNIYSFLNWYQQKPGKAPKLLIYATSSLQSGVPSRFSGSGSGTDFTLTISSLQPEDFASYYCQQNYNIPWTFGQGTKVEIK
B6: 559B-M0042-E06 (Fab, V domains shown)
VH: EVQLLESGGGLVQPGGSLRLSCAASGFTFSMYKMSWVRQAPGKGLEWVSVISPSGGRTYYADSVKGRFTISRDNSKNTLYLQMNSLRAEDTAVYYCARGTRTSGLDYWGQGTLVTVSS
VL: QSALTQPASVSGSPGQSITISCTGTSSDVGGYKYVSWYQQHPGKAPKLVIYEVSNRPSGVSNRFSGSKSGNTASLTISGLQAEDEADYYCSSYTSSTTVVFGGGTKLTVL
B7: 559B-M0047-H01 (Fab, V domains shown)
VH: EVQLLESGGGLVQPGGSLRLSCAASGFTFSFYMMYWVRQAPGKGLEWVSSISSSGGFTRYADSVKGRFTISRDNSKNTLYLQMNSLRAEDTAVYYCARVRGLAVAAPDYWGQGTLVTVSS
VL: QSELTQPASVSGSPGQSITISCIGTSSDIGTYNYVSWYQQHPGKAPKLMIYDVNTRPSGVSDRFSGSKSGNTASLTISGLQAEDEADYYCSSYTTSVTWVFGGGTTLTVL
B8: 559B-M0038-F04 (Fab, V domains shown)
VH: EVQLLESGGGLVQPGGSLRLSCAASGFTFSKYEMMWVRQAPGKGLEWVSSISPSGGYTMYADSVKGRFTISRDNSKNTLYLQMNSLRAEDTAVYYCARHRSKWNDAPFDSWGQGTLVTVSS
VL: DIQMTQSPSSLSASVGDRVAITCRASQSIDTYLNWYQQKPGKAPKLLIYAASKLEDGVPSRFSGSGTGTDFTLTIRSLQPEDFASYFCQQSYSSPGITFGPGTKVEIK
B9: 559B-M0061-G06 (Fab, V domains shown)
VH: EVQLLESGGGLVQPGGSLRLSCAASGFTFSKYTMWWVRQAPGKGLEWVSVISSSGGKTYYADSVKGRFTISRDNSKNTLYLQMNSLRAEDTAVYYCARTANRAFDIWGQGTMVTVSS
VL: DIQMTQSPAALSVSPGERATLSCRASQSVSSDLAWYQQKPGQAPRLLIHGASTRATGIPARFSGSGSGREFTLTISSLQSEDFAVYYCQQYNDWPPLFGPGTKVNIK
B10: 559B-M0017-H08 (Fab, V domains shown)
VH: EVQLLESGGGLVQPGGSLRLSCAASGFTFSPYWMHWVRQAPGKGLEWVSVISPSGGGTGYADSVKGRFTISRDNSKNTLYLQMNSLRAEDTAVYYCARESRGSGSHEDYWGQGTLVTVSS
VL: DIQMTQSPATLSLSPGERATLSCRASQSVSSYLAWYQQKPGQAPRLLIYGASNRGTGIPARFSGSGSGTEFTLTISSLQSEDFAVYFCQQYKNWPNLTFGGGTKVDIK
B11: 559B-M0044-C05 (Fab, V domains shown)
VH: EVQLLESGGGLVQPGGSLRLSCAASGFTFSIYQMYWVRQAPGKGLEWVSSIYSSGGRTFYADSVKGRFTISRDNSKNTLYLQMNSLRAEDTAVYYCATRGSWYVGGNEYFQHWGQGTLVTVSS
VL: QSVLTQSPSLSLSPGQTASIPCSGDTLGNKFVSWYQQKPGQSPVLVIYQDTKRPSGIPERFSGSNSGNTATLTITGTQAMDEADYYCQVWDSNSYAFGPGTKVTVL
B12: 559B-M0067-E02 (Fab, V domains shown)
VH: EVQLLESGGGLVQPGGSLRLSCAASGFTFSLYPMVWVRQAPGKGLEWVSSIYPSGGFTTYADSVKGRFTISRDNSKNTLYLQMNSLRAEDTAVYYCARSSRYYYYGMDVWGQGTTVTVSS
VL: QYELTQPPSMSGTPGQRVTISCSGSSSNIGSEYVYWFQQLPGTAPKLLIYRNDQRPSGVPDRFSGSKSGTSASLAISGLRSEDETDYYCSTWDDTLRTGVFGGGTKVTVL
B13: 559B-M0039-D08 (Fab, V domains shown)
VH: EVQLLESGGGLVQPGGSLRLSCAASGFTFSNYAMQWVRQAPGKGLEWVSWIYSSGGPTYYADSVKGRFTISRDNSKNTLYLQMNSLRAEDTAVYYCARGLPGQPFDYWGQGTLVTVSS
VL: QSELTQPPSASGTPGQRVTISCSGSSSNIGNNYVYWYQQFPGTAPKLLIYRNNQRPSGVPDRFSGSKSGTSASLAISGLRSEDEADYYCATWDDRLSGWVFGGGTKLTVL
B14: 559B-M0021-G11 (Fab, V domains shown)
VH: EVQLLESGGGLVQPGGSLRLSCAASGFTFSPYPMTWVRQAPGKGLEWVSGISSSGGFTPYADSVKGRFTISRDNSKNTLYLQMNSLRAEDTAVYYCARMVRGVIKAFDIWGQGTMVTVSS
VL: QYELTQPPSASGTPGQRVTISCSGSSSNIGSHYVFWYQQLPGAAPKLLIYRNNQRPSGVPDRFSGSKSGTSASLAISGLRSEDEADYYCATWDNSLSAWVFGGGTKLTVL
B15: 559B-M0003-C08 (Fab, V domains shown)
VH: EVQLLESGGGLVQPGGSLRLSCAASGFTFSPYMMYWVRQAPGKGLEWVSSISPSGGKTWYADSVKGRFTISRDNSKNTLYLQMNSLRAEDTAVYYCARLGGSSSYYYYYYYGMDVWGQGTTVTVSS
VL: QSALTQSPSASGTPGQRVTISCSGSSSNIGGNTVNWYQQFPGTAPKLLIYSNNQRPSGVPDRFSGSKSGTSASLAISGLQSEDEAIYYCASWDDRLNGHWVFGGGTRLTVL
B16: 559B-M0038-H03 (Fab, V domains shown)
VH: EVQLLESGGGLVQPGGSLRLSCAASGFTFSKYDMHWVRQAPGKGLEWVSRISSSGGKTEYADSVKGRFTISRDNSKNTLYLQMNSLRAEDTAVYYCAREYRYCTANTCSLYGMDVWGRGTTVTVSS
VL: DIQMTQSPSSLSASVGDRVAITCRTSQGVRSDFAWYQQTPGKAPRRLIYAAFILDNGVPSRFSGSGSGTEFTLTISSLQPEDFATYYCQQSYSTPLTFGGGTKVEMK
B17: 559B-M0019-E12 (Fab, V domains shown)
VH: EVQLLESGGGLVQPGGSLRLSCAASGFTFSGYNMYWVRQAPGKGLEWVSRISPSGGWTSYADSVKGRFTISRDNSKNTLYLQMNSLRAEDTAVYYCTRGQWMDWWGQGTMVTVSS
VL: DIQMTQSPSSLSASVGDRVIITCRASQNITGYLNWYQQKPGKAPNLLIYDASRMNTGVPSRFRGSGSGTDYILTIYKLEPEDIGTYFCQHTDDFSVTFGGGTKVDLK
B18: 559B-M0068-C07 (Fab, V domains shown)
VH: EVQLLESGGGLVQPGGSLRLSCAASGFTFSSYQMHWVRQAPGKGLEWVSGIYSSGGSTPYADSVKGRFTISRDNSKNTLYLQMNSLRAEDTAVYYCARGHHGMDVWGQGTTVTVSS
VL: DIQMTQSPSSVSASVGDRVTITCRASQGISSWLAWYQQKPGKAPKLLIYAASNLQSGVPSRFSGSGSGTDFTLTISSLQPEDFATYYCQKYNIAPYTFGQGTKLEIK

In the test the target is T1, intact high molecular weight kininogen …. Nature of the test: ELISA: Fab coated on 96-well plate, LowCross block, biotinylated antigen, streptavidin-HRP; signal over uncoated well. The procedure:
Thirty-six purified Fab clones (see Table 2 below) were assessed for binding to cleaved HWMK, intact HMWK, and LWMK using the immunoassay described in Example 1. Specifically, each of the purified Fab clones was immobilized on 96-well assay plates at a concentration of […]) in a total volume of 100 μL in PBS and incubated overnight at 2-8° C. The assay plates were blocked using LowCross blocking buffer. Biotinylated intact HMWK, biotinylated cleaved HMWK or biotinylated LMWK ([…]) was added to each well in a total volume of 100 μL and incubated for 2 hours prior to washing with a wash buffer. HRP-labeled streptavidin was added to each well at a concentration of 100 ng/mL, and the signal was developed using Ultra TMB Substrate. The signal to noise ratio was calculated using the signal observed upon the addition of the biotinylated protein to an uncoated well. (FIG. 2, panels A and B). Based on the ELISA results, the antibodies can be divided among 5 categories (Table 2).
(In general: ELISA stands for enzyme-linked immunosorbent assay.)
Regarding B1, the binding result is listed as “binds”.
As for B2, the entry is “binds”; as for B3, “binds”.
As to B4, the binding result is reported as “binds”.
Regarding B5, the binding result was “binds”.
As for B6, the entry is “binds”; as for B7, “binds”.
On to B8, for which the binding result is listed as “binds”.
Take B9: the binding result is reported as “binds”.
To B10 belongs “binds”; to B11, “binds”.
To B12 belongs “binds”.
Turning to B13, the binding result is reported as “binds”.
Take B14: the binding result is on record as “binds”.
To B15 belongs “binds”; to B16, “binds”.
As for B17, the entry is “binds”; as for B18, “binds”.
